Assay results as given in IntAct's records for PubMed 31515488.

B1: Zyxin (Homo sapiens), Q15942 (parent)
chain: MAAPRPSPAISVSVSAPAFYAPQKKFGPVVAPKPKVNPFRPGDSEPPPAPGAQRAQMGRVGEIPPPPPEDFPLPPPPLAGDGDDAEGALGGAFPPPPPPIEESFPPAPLEEEIFPSPPPPPEEEGGPEAPIPPPPQPREKVSSIDLEIDSLSSLLDDMTKNDPFKARVSSGYVPPPVATPFSSKSSTKPAAGGTAPLPPWKSPSSSQPLPQVPAPAQSQTQFHVQPQPQPKPQVQLHVQSQTQPVSLANTQPRGPPASSPAPAPKFSPVTPKFTPVASKFSPGAPGGSGSQPNQKLGHPEALSAGTGSPQPPSFTYAQQREKPRVQEKQHPVPPPAQNQNQVRSPGAPGPLTLKEVEELEQLTQQLMQDMEHPQRQNVAVNELCGRCHQPLARAQPAVRALGQLFHIACFTCHQCAQQLQGQQFYSLEGAPYCEGCYTDTLEKCNTCGEPITDRMLRATGKAYHPHCFTCVVCARPLEGTSFIVDQANRPHCVPDYHKQYAPRCSVCSEPIMPEPGRDETVRVVALDKNFHMKCYKCEDCGKPLSIEADDNGCFPLDGHVLCRKCHTARAQT
B2: Zinc finger protein Aiolos (Homo sapiens), Q9UKT9 (parent)
chain: MEDIQTNAELKSTQEQSVPAESAAVLNDYSLTKSHEMENVDSGEGPANEDEDIGDDSMKVKDEYSERDENVLKSEPMGNAEEPEIPYSYSREYNEYENIKLERHVVSFDSSRPTSGKMNCDVCGLSCISFNVLMVHKRSHTGERPFQCNQCGASFTQKGNLLRHIKLHTGEKPFKCHLCNYACQRRDALTGHLRTHSVEKPYKCEFCGRSYKQRSSLEEHKERCRTFLQSTDPGDTASAEARHIKAEMGSERALVLDRLASNVAKRKSSMPQKFIGEKRHCFDVNYNSSYMYEKESELIQTRMMDQAINNAISYLGAEALRPLVQTPPAPTSEMVPVISSMYPIALTRAEMSNGAPQELEKKSIHLPEKSVPSERGLSPNNSGHDSTDTDSNHEERQNHIYQQNHMVLSRARNGMPLLKEVPRSYELLKPPPICPRDSVKVINKEGEVMDVYRCDHCRVLFLDYVMFTIHMGCHGFRDPFECNMCGYRSHDRYEFSSHIARGEHRALLK
partner: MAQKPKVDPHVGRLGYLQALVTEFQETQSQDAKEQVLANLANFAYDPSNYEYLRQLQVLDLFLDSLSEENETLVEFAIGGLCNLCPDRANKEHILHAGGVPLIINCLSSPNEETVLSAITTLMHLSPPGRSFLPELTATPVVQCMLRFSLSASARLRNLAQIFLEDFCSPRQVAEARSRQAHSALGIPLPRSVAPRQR
B3: Notch homolog 2 N-terminal-like protein A (Homo sapiens), Q7Z3S9 (parent)
chain: MCVTYHNGTGYCKCPEGFLGEYCQHRDPCEKNRCQNGGTCVAQAMLGKATCRCASGFTGEDCQYSTSHPCFVSRPCLNGGTCHMLSRDTYECTCQVGFTGKECQWTDACLSHPCANGSTCTTVANQFSCKCLTGFTGQKCETDVNECDIPGHCQHGGTCLNLPGSYQCQCLQGFTGQYCDSLYVPCAPSPCVNGGTCRQTGDFTFECNCLPETVRRGTELWERDREVWNGKEHDEN
partner: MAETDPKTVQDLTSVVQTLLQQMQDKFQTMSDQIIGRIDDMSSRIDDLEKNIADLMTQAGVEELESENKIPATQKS
B4: Nucleoside diphosphate kinase homolog 5 (Homo sapiens), P56597 (parent)
chain: MEISMPPPQIYVEKTLAIIKPDIVDKEEEIQDIILRSGFTIVQRRKLRLSPEQCSNFYVEKYGKMFFPNLTAYMSSGPLVAMILARHKAISYWLELLGPNNSLVAKETHPDSLRAIYGTDDLRNALHGSNDFAAAEREIRFMFPEVIVEPIPIGQAAKDYLNLHIMPTLLEGLTELCKQKPADPLIWLADWLLKNNPNKPKLCHHPIVEEPY
B5: Microtubule-associated tumor suppressor candidate 2 (Homo sapiens), Q5JR59-3 (parent)
chain: MGHCCCKPYNCLQCLDKTNESALVKEKELSIELANIRDEVAFHTAKCEKLQKEKEELERRFEDEVKRLGWQQQAELQELEERLQLQFEAEMARLQEEHGDQLLSIRCQHQEQVEDLTASHDAALLEMENNHTVAITILQDDHDHKVQELMSTHELEKKELEENFEKLRLSLQDQVDTLTFQSQSLRDRARRFEEALRKNTEEQLEIALAPYQHLEEDMKSLKQVLEMKNQQIHEQEKKILELEKLAEKNIILEEKIQVLQQQNEDLKARIDQNTVVTRQLSEENANLQEYVEKETQEKKRLSRTNEELLWKLQTGDPTSPIKLSPTSPVYRGSSSGPSSPARVSTTPR
partner: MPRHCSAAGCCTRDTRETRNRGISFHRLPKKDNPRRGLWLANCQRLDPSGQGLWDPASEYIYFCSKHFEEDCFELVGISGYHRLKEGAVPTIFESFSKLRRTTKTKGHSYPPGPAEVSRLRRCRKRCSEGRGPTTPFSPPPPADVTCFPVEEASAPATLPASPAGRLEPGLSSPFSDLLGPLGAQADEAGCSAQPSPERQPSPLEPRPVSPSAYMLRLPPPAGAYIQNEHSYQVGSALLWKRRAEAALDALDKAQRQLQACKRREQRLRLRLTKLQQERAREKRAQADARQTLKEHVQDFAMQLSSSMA

Variants of: B1
Details: with pf21a_human PHF21A

| Variant | effect of a mutation on the interaction |
| --- | --- |
| MAAPRPSPAISVSVSAPAFYAPQKKFGPVVAPKPKVNPFRPGDSEPPPAPGAQRAQMGRVGEIPPPPPEDFPLPPPPLAGDGDDAEGALGGAFPPPPPPIEESFPPAPLEEEIFPSPPPPPEEEGGPEAPIPPPPQPREKVSSIDLEIDSLSSLLDDMTKNDPFKARVSSGYVPPPVATPFSSKSSTKPAAGGTAPLPPWKSPSSSQPLPQVPAPAQSQTQFHVQPQPQPKPQVQLHVQSQTQPVSLANTQPRGPPASSPAPAPKFSPVTPKFTPVASKFSPGAPGGSGSQPNQKLGHPEALSAGTGSPQPPSFTYAQQREKPRVQEKQHPVPPPAQNQNQVRSPGAPGPLTLKEVEELEQLTQQLMQDMEHPQRQNVAVNELCGRCHQPLARAQPAVRALGQLFHIACFTCHQCAQQLQGQQFYSLEGAPYCEGCYTDTLEKCNTCGEPITDRMLRATGKAYHPHCFTCVVCARPLEGTSFIVDQANWPHCVPDYHKQYAPRCSVCSEPIMPEPGRDETVRVVALDKNFHMKCYKCEDCGKPLSIEADDNGCFPLDGHVLCRKCHTARAQT [R489W] | with no effect |
| MAAPRPSPAISVSVSAPAFYAPQKKFGPVVAPKPKVNPFRPGDSEPPPAPGAQRAQMGRVGEIPPPPPEDFPLPPPPLAGDGDDAEGALGGAFPPPPPPIEESFPPAPLEEEIFPSPPPPPEEEGGPEAPIPPPPQPREKVSSIDLEIDSLSSLLDDMTKNDPFKARVSSGYVPPPVATPFSSKSSTKPAAGGTAPLPPWKSPSSSQPLPQVPAPAQSQTQFHVQPQPQPKPQVQLHVQSQTQPVSLANTQPRGPPASSPAPAPKFSPVTPKFTPVASKFSPGAPGGSGSQPNQKLGHPEALSAGTGSPQPPSFTYAQQREKPRVQEKQHPVPPPAQNQNQVRSPGAPGPLTLKEVEELEQLTQQLMQDMEHPQRQNVAVNELCGRCHQPLARAQPAVRALGQLFHIACFTCHQCAQQLQGQQFYSLEGAPYCEGCYTDTLEKCNTCGEPITDRMLRATGKAYHPHCFTCVVCARPLEGTSFIVDQANRPHCVPDYHKQYAPRCSVCSEPIMPEPGRDETVRVVALDKNFHMKCYKCEDCGKPLSIEADDNGCFPLDGHVLCQKCHTARAQT [R563Q] | with no effect |

Variants of: B2
Details: with armc7_human ARMC7, Q9H6L4

| Variant | effect of a mutation on the interaction |
| --- | --- |
| N119D | with no effect |
| A24V | with no effect |

Variants of: B3
Details: with hsbp1_human HSBP1, O75506

| Variant | effect of a mutation on the interaction |
| --- | --- |
| R74Q | with no effect |
| A115T | with no effect |

Variants of: B4
Details: with dydc1_human DYDC1, Q8WWB3
Chain of dydc1_human DYDC1, Q8WWB3 (Q8WWB3 whole entry): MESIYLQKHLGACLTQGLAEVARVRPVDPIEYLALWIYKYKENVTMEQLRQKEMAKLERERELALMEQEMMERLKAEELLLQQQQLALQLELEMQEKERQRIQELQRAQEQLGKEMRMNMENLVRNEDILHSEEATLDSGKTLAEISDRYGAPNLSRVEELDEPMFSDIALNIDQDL

| Variant | effect of a mutation on the interaction |
| --- | --- |
| MEISMPPPQIYVEKTLAIIKPDIVDKEEEIQDIILRSGFTIVQRRKLRLSPEQCSNFYVEKYGKMFFPNLTAYMSSGPLVAMILARHKAISYWLELLGPNNSFVAKETHPDSLRAIYGTDDLRNALHGSNDFAAAEREIRFMFPEVIVEPIPIGQAAKDYLNLHIMPTLLEGLTELCKQKPADPLIWLADWLLKNNPNKPKLCHHPIVEEPY [L103F] | with no effect |
| MEISMPPPQIYVEKTLAIIKPDIVDKEEEIQDIILRSGFTIVQRRKLRLSPEQCSNFYVEKYGKMFFPNLTAYMSSGPLVAMILARHKAISYWLELLGPNNSLVAKETHPDSLRAIYGTDDLRNALHGSNDFAAAEREIRFMFPEVIVEPIPIGQAAKDYLNLHIMPTLLEGLTELCKQKPADPLIWLADWLLKNNPDKPKLCHHPIVEEPY [N198D] | with no effect |
| MEISMPPPQIYVEKTLAIIKPDIVDKEEEIQDIILRSGFTIVQRRKLRLNPEQCSNFYVEKYGKMFFPNLTAYMSSGPLVAMILARHKAISYWLELLGPNNSLVAKETHPDSLRAIYGTDDLRNALHGSNDFAAAEREIRFMFPEVIVEPIPIGQAAKDYLNLHIMPTLLEGLTELCKQKPADPLIWLADWLLKNNPNKPKLCHHPIVEEPY [S50N] | with no effect |
| MEISMPPPQIYVEKTLAIIKPDIVDKEEEIQDIILRSGFTIVQRRKLRLSPEQCSNFYVEKYGKMFFPNLTAYMSSGPLVAMILARHKAISYWLELLGPNNSLVAKETHPDSLRAIYGTDDLRNALHGSNDFAAAEREIRFMFPEVIVEPIPIGQAAKDYLNLHMMPTLLEGLTELCKQKPADPLIWLADWLLKNNPNKPKLCHHPIVEEPY [I165M] | with no effect |

Variants of: B5
Details: with thap7_human THAP7, Q9BT49

| Variant | effect of a mutation on the interaction |
| --- | --- |
| MGHCCCKPYNCLQCLDKTNESALVKEKELSIELANIRDEVAFHTAKCEKLQKEKEELERRFEDEVKRLGWQQQAELQELEERLQLQFEVEMARLQEEHGDQLLSIRCQHQEQVEDLTASHDAALLEMENNHTVAITILQDDHDHKVQELMSTHELEKKELEENFEKLRLSLQDQVDTLTFQSQSLRDRARRFEEALRKNTEEQLEIALAPYQHLEEDMKSLKQVLEMKNQQIHEQEKKILELEKLAEKNIILEEKIQVLQQQNEDLKARIDQNTVVTRQLSEENANLQEYVEKETQEKKRLSRTNEELLWKLQTGDPTSPIKLSPTSPVYRGSSSGPSSPARVSTTPR [A89V] | with no effect |
